Here are results for 58 variants from the Human Domainome abundance scans (Beltran et al. 2025).

± gives the uncertainty stated by the source.

The labels stand for the following.
B1: Myocardin, residues 363 to 406; numbered along this chain, Q8IZQ8 (parent)
chain: KPGPLPPNLDDLKVSELRQQLRIRGLPVSGTKTALMDRLRPFQD

In this data set the parent is B1. Briefly: abundance fitness (aPCA) (normalised: wild type 0, dead -1); higher = more abundant; growth selection in yeast, the domain comes from the species named. To be noted: Homo sapiens.
Turning to KPGPLPPNLDDLKVSELRQQLRIRGLPVSGTKTADMDRLRPFQD [L35D], the abundance fitness was -0.459 ± 0.15.

Regarding KPGPLPPNLDDLKVSELRQQLRIRGLPVSGTKTATMDRLRPFQD [L35T], the abundance fitness is -0.551 ± 0.097.

Consider KPGPLPPNLDDLKVSELRQQLRIRGLPVSGTKTACMDRLRPFQD [L35C], for which the abundance fitness was -0.184 ± 0.2.

As for KPGPLPPNLDDLKVSELRQQLRIRGLPVSGTKTAVMDRLRPFQD [L35V], the abundance fitness is -0.459 ± 0.081.

KPGPLPPNLDDLKVSELRQQLRIRGLPVSGTKTAEMDRLRPFQD [L35E]: the abundance fitness was -0.293 ± 0.076.

Consider KPGPLPPNLDDLKVSELRQQLRIRGLPVSGTKTAHMDRLRPFQD [L35H], for which the abundance fitness was -0.943 ± 0.25.

Take KPGPLPPNLDDLKVSELRQQLRIRGLPVSGTKTAGMDRLRPFQD [L35G]: the abundance fitness was -0.489 ± 0.068.

Turning to KPGPLPPNLDDLKVSELRQQLRIRGLPVSGTKTANMDRLRPFQD [L35N], the abundance fitness was -0.613 ± 0.17.

For KPGPLPPNLDDLKVSELRQQLRIRGLPVSGTKTAMMDRLRPFQD [L35M], the abundance fitness was determined as 0.064 ± 0.093.

Regarding KPGPLPPNLDDLKVSELRQQLRIRGLPVSGTKTAIMDRLRPFQD [L35I], the abundance fitness was 0.092 ± 0.26.

Consider KPGPLPPNLDDLKVSELRQQLRIRGLPVSGTKTAWMDRLRPFQD [L35W], for which the abundance fitness is -0.561 ± 0.11.

KPGPLPPNLDDLKVSELRQQLRIRGLPVSGTKTAPMDRLRPFQD [L35P]: the abundance fitness was -0.578 ± 0.079.

As for KPGPLPPNLDDLKVSELRQQLRIRGLPVSGTKTARMDRLRPFQD [L35R], the abundance fitness is -0.799 ± 0.077.

Consider KPGPLPPNLDDLKVSELRQQLRIRGLPVSGTKTAKMDRLRPFQD [L35K], for which the abundance fitness is -0.469 ± 0.093.

Consider KPGPLPPNLDDLKVSELRQQLRIRGLPVSGTKTASMDRLRPFQD [L35S], for which the abundance fitness is -0.418 ± 0.1.

As for KPGPLPPNLDDLKVSELRQQLRIRGLPVSGTKTAQMDRLRPFQD [L35Q], the abundance fitness was -0.226 ± 0.1.

Take KPGPLPPNLDDLKVSELRQQLRIRGLPVSGTKTFLMDRLRPFQD [A34F]: the abundance fitness is -0.909 ± 0.22.

Turning to KPGPLPPNLDDLKVSELRQQLRIRGLPVSGTKTMLMDRLRPFQD [A34M], the abundance fitness was -0.262 ± 0.18.

With KPGPLPPNLDDLKVSELRQQLRIRGLPVSGTKTPLMDRLRPFQD [A34P], the abundance fitness was -0.825 ± 0.22.

KPGPLPPNLDDLKVSELRQQLRIRGLPVSGTKTRLMDRLRPFQD [A34R]: the abundance fitness was -0.642 ± 0.073.

Regarding KPGPLPPNLDDLKVSELRQQLRIRGLPVSGTKTLLMDRLRPFQD [A34L], the abundance fitness is -0.721 ± 0.13.

As to KPGPLPPNLDDLKVSELRQQLRIRGLPVSGTKTVLMDRLRPFQD [A34V], the abundance fitness was 0.026 ± 0.084.

As to KPGPLPPNLDDLKVSELRQQLRIRGLPVSGTKTSLMDRLRPFQD [A34S], the abundance fitness is -0.223 ± 0.085.

In the case of KPGPLPPNLDDLKVSELRQQLRIRGLPVSGTKTQLMDRLRPFQD [A34Q], the abundance fitness is -0.601 ± 0.14.

As for KPGPLPPNLDDLKVSELRQQLRIRGLPVSGTKTWLMDRLRPFQD [A34W], the abundance fitness was -1.14 ± 0.28.

KPGPLPPNLDDLKVSELRQQLRIRGLPVSGTKTKLMDRLRPFQD [A34K]: the abundance fitness was -0.4 ± 0.11.

In the case of KPGPLPPNLDDLKVSELRQQLRIRGLPVSGTKTTLMDRLRPFQD [A34T], the abundance fitness is -0.076 ± 0.12.

As for KPGPLPPNLDDLKVSELRQQLRIRGLPVSGTKTGLMDRLRPFQD [A34G], the abundance fitness was -0.556 ± 0.075.

KPGPLPPNLDDLKVSELRQQLRIRGLPVSGTKTALMDRQRPFQD [L39Q]: the abundance fitness was -0.465 ± 0.14.

As for KPGPLPPNLDDLKVSELRQQLRIRGLPVSGTKTALMDRCRPFQD [L39C], the abundance fitness was -0.785 ± 0.27.

Consider KPGPLPPNLDDLKVSELRQQLRIRGLPVSGTKTALMDRYRPFQD [L39Y], for which the abundance fitness is -0.505 ± 0.24.

Turning to KPGPLPPNLDDLKVSELRQQLRIRGLPVSGTKTALMDRVRPFQD [L39V], the abundance fitness is -0.594 ± 0.092.

Regarding KPGPLPPNLDDLKVSELRQQLRIRGLPVSGTKTALMDRPRPFQD [L39P], the abundance fitness is -0.373 ± 0.084.

KPGPLPPNLDDLKVSELRQQLRIRGLPVSGTKTALMDRSRPFQD [L39S]: the abundance fitness is -0.601 ± 0.13.

On to KPGPLPPNLDDLKVSELRQQLRIRGLPVSGTKTALMDRIRPFQD [L39I], for which the abundance fitness is -0.474 ± 0.18.

For the variant KPGPLPPNLDDLKVSELRQQLRIRGLPVSGTKTALMDRGRPFQD [L39G], the abundance fitness is -0.528 ± 0.1.

On to KPGPLPPNLDDLKVSELRQQLRIRGLPVSGTKTALMDRMRPFQD [L39M], for which the abundance fitness is -0.409 ± 0.12.

KPGPLPPNLDDLKVSELRQQLRIRGLPVSGTKTALMDRARPFQD [L39A]: the abundance fitness was -0.641 ± 0.099.

As for KPGPLPPNLDDLKVSELRQQLRIRGLPVSGTKTALMDRERPFQD [L39E], the abundance fitness is -0.562 ± 0.1.

Take KPGPLPPNLDDLKVSELRQQLRIRGLPVSGTKTALMDRRRPFQD [L39R]: the abundance fitness is -0.776 ± 0.081.

In the case of KPGPLPPNLDDLKVSELRQQLRIRGLPVSGTKTALMDRDRPFQD [L39D], the abundance fitness is -0.283 ± 0.16.

Turning to KPGPLPPNLDDLKVSELRQQLRIRGLPVSGTKTALMDRKRPFQD [L39K], the abundance fitness is -0.595 ± 0.19.

For the variant KPGPLPPNLDDLKVSELRQQLRIRGLPVSGTKTALMDRFRPFQD [L39F], the abundance fitness is -0.755 ± 0.35.

For the variant KPGPLPPNLDDLKVSELRQQLRIRGLPVSGTKTALMDRTRPFQD [L39T], the abundance fitness is -0.625 ± 0.14.

With KPGPLPPNLDDLKVSELRQQLRIRGLPVSGTKTALMDRHRPFQD [L39H], the abundance fitness is -0.611 ± 0.17.

On to KPGPLPPNLDDLKVSELRQQLRIRGLPVSGTKTALMDRWRPFQD [L39W], for which the abundance fitness is -0.77 ± 0.1.

As for KPGPLPPNLDDLKVSELRQQLRIRGLPVSGTKTALMDALRPFQD [R38A], the abundance fitness was -0.592 ± 0.13.

Consider KPGPLPPNLDDLKVSELRQQLRIRGLPVSGTKTALMDGLRPFQD [R38G], for which the abundance fitness was -0.469 ± 0.071.

Take KPGPLPPNLDDLKVSELRQQLRIRGLPVSGTKTALMDELRPFQD [R38E]: the abundance fitness is -0.451 ± 0.086.

Take KPGPLPPNLDDLKVSELRQQLRIRGLPVSGTKTALMDMLRPFQD [R38M]: the abundance fitness was -0.445 ± 0.11.

As to KPGPLPPNLDDLKVSELRQQLRIRGLPVSGTKTALMDKLRPFQD [R38K], the abundance fitness is -0.39 ± 0.094.

Regarding KPGPLPPNLDDLKVSELRQQLRIRGLPVSGTKTALMDTLRPFQD [R38T], the abundance fitness is -0.316 ± 0.16.

On to KPGPLPPNLDDLKVSELRQQLRIRGLPVSGTKTALMDNLRPFQD [R38N], for which the abundance fitness is -0.765 ± 0.2.

Consider KPGPLPPNLDDLKVSELRQQLRIRGLPVSGTKTALMDYLRPFQD [R38Y], for which the abundance fitness is -0.519 ± 0.12.

With KPGPLPPNLDDLKVSELRQQLRIRGLPVSGTKTALMDPLRPFQD [R38P], the abundance fitness is -0.219 ± 0.13.

Take KPGPLPPNLDDLKVSELRQQLRIRGLPVSGTKTALMDWLRPFQD [R38W]: the abundance fitness is -1.02 ± 0.13.

On to KPGPLPPNLDDLKVSELRQQLRIRGLPVSGTKTALMDCLRPFQD [R38C], for which the abundance fitness was -0.929 ± 0.18.

For the variant KPGPLPPNLDDLKVSELRQQLRIRGLPVSGTKTALMDHLRPFQD [R38H], the abundance fitness is -1.2 ± 0.26.
